Consider five molecules from patent US20260217845A1 (published 2026).

Test [1] has as its target T1, human TNFR2 (extracellular domain) (UniProt P20333 23-257).
T1 chain: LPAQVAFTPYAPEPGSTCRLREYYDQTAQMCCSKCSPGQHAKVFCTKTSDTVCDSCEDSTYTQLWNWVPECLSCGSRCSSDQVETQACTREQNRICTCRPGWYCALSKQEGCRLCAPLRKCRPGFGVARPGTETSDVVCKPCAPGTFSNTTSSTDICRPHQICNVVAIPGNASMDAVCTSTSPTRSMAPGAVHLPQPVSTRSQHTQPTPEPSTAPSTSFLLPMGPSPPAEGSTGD
As to the kind of experiment: SPR.

Test [2] addresses T1, human TNFR2 (extracellular domain). The test can be described thus: binding affinity.
For test [3] the target is unchanged. As to the kind of experiment: SPR.
The target is the same in test [4]. The test can be described thus: SPR. (In general: Surface plasmon resonance follows binding to a sensor surface in real time, without labels.)
The target is the same in test [5]. The test can be described thus: SPR.
For test [6] the target is unchanged. The test can be described thus: SPR.
The target is the same in test [7]. As to the kind of experiment: binding affinity; marked * on sheet.

In general, Kd refers to the constant that tells how readily two partners part at equilibrium.

B1: ODY-31D6 (VHH)
VHH: EVQLVESGGGLVQAGGSLRLSCAASGSIVSTNGMGWHRQVPGKGRELVAGIRSDGFTNYADSVKGRFTISSDNVKNTVYLQMNSLKAEDSGVYFCYYQALSSPNYGQTFWGQGTQVTVSS
Take B1: the Kd in test [1] and in test [2] was 0.019 µM throughout.

B2: ODY-37C7 (VHH)
VHH: EVQLVESGGGLVQPGGSLRLSCAASGFTFDDIAMTWVRQAPGKGLEWVSSIYSYGPNTYYADSVKGRFTISTDSAKNTLYLQMNSLKPEDTAVYYCAADSDLSTVVVGPHDYWGQGTQVTVSS
On to B2, for which the Kd in test [3] and in test [2] was 0.013 µM throughout.

B3: ODY-31G3 (VHH)
VHH: EVQLVESGGGLVQAGGSLRVSCAASGSIFRADAMGWHRQVPGKPREFVAGIRSDGFTNYAEAVKGRFTISWDTVKNTVYLQMNSLKPEDTAVYTCYYQSLSSPNYGQVFWGQGTQVTVSS
As for B3, the Kd in test [4] and in test [2] was 0.0079 µM each time.

B4: ODY-33D4 (VHH)
VHH: EVQLVESGGGLVQAGGSLRLSCAASGRTFSDYGMGWFRQAPGKDSEFVAAINWSNGRTNYADSVKGRFTISRDNAKNTGYLEMNSLKVEDTAVYYCAATPSGKAYSYWGQGTQVTVSS
As for B4, the Kd in test [5] and in test [2] was 0.0056 µM each time.

B5: ODY-35A10 (VHH)
VHH: EVQLVESGGGLVEAGGSLRLSCAASGRTFGSYTMGWFRQAPGREQEFLASIRRTGGSTSYADSVKGRFTISRDNAKKAVYLQMNSLKPEDTAVYYCAAAPTGRAFTYWGQGTQVTVSS
In the case of B5, the dissociation constant Kd in test [6] and in test [7] was 0.048 µM in each case.
